Experimental data: the RNAGym collection of RNA variant scans (doi:10.1093/molbev/msab373)

B1: Azoarcus group I ribozyme (parent)
chain: GUGCCUUGCGCCGGGAAACCACGCAAGGGAUGGUGUCAAAUUCGGCGAAACCUAAGCGCCCGCCCGGGCGUAUGGCAACGCCGAGCCAAGCUUCGGCGCCUGCGCCGAUGAAGGUGUAGAGACUAGACGGCACCCACCUAAGGCAAACGCUAUGGUGAAGGCAUAGUCCAGGGAGUGGCGAAAGUCACACAAACCGG

Variants of: B1
Assay: reverse-splicing fitness (ratio to wild type); higher = more active; in vitro selection; Mg2+ level not given
Method in brief: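 An in vitro group I ribozyme library with randomized positions was T7-transcribed and gel-purified. In triplicate, 10 pmol RNA in EPPS pH 7.5 was reacted with 50 pmoles of a 30-nt RNA substrate for 1 h at 37 °C across several added MgCl2 levels (1–48 mM), then stopped with EDTA. Products were reverse transcribed from a substrate-complementary primer, PCR-amplified and sequenced (HiSeq 4000). Fitness is a variant's read proportion after selection over that before, normalised to wild type.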

Variant	reverse-splicing fitness
GUGCCUUGCGCCGGGAAACCACGCAAGGGAUGGUGUCAAAUUCGGCGAAACCUAAGCGCCCGCCCGGGCGUAUGGCAACGCAGAGCCAAGCUUCGGCGCCUGCGCCGAUGUAGGUGUAGCGACUAGACGGCACCCACCUAAGGCGAACGUUAUGGUGAAGGCAUAGUCAAGGGAGAGGCGAAAGUCACACAAACCGG [C82A A111U A120C A145G C150U C169A U176A]	0.0182
GUGCCUUGCGCCGGGAAACCACGCAAGGGAUGGUGUCAAAUUCGGCGAAACCUAAGCGCCCGCCCGGGCGUAUGGCAACGCAGAGCCAAGCUUCGGCGCCUGCGCCGAUGUAGGUGUAGCGACUAGACGGCACCCACCUAAGGCGAACGUUAUGGUGAAGGCAUAGUCAAGGGAGCGGCGAAAGUCACACAAACCGG [C82A A111U A120C A145G C150U C169A U176C]	0.018
GUGCCUUGCGCCGGGAAACCACGCAAGGGAUGGUGUCAAAUUCGGCGAAACCUAAGCGCCCGCCCGGGCGUAUGGCAACGCAGAGCCAAGCUUCGGCGCCUGCGCCGAUGUAGGUGUAGCGACUAGACGGCACCCACCUAAGGCGAACGUUAUGGUGAAGGCAUAGUCAAGGGAGUGGCGAAAGUCACACAAACCGG [C82A A111U A120C A145G C150U C169A]	0.0113
GUGCCUUGCGCCGGGAAACCACGCAAGGGAUGGUGUCAAAUUCGGCGAAACCUAAGCGCCCGCCCGGGCGUAUGGCAACGCAGAGCCAAGCUUCGGCGCCUGCGCCGAUGUAGGUGUAGCGACUAGACGGCACCCACCUAAGGCGAACGAUAUGGUGAAGGCAUAGUCCAGGGAGCGGCGAAAGUCACACAAACCGG [C82A A111U A120C A145G C150A U176C]	0.0241
GUGCCUUGCGCCGGGAAACCACGCAAGGGAUGGUGUCAAAUUCGGCGAAACCUAAGCGCCCGCCCGGGCGUAUGGCAACGCAGAGCCAAGCUUCGGCGCCUGCGCCGAUGUAGGUGUAGCGACUAGACGGCACCCACCUAAGGCGAACGAUAUGGUGAAGGCAUAGUCCAGGGAGGGGCGAAAGUCACACAAACCGG [C82A A111U A120C A145G C150A U176G]	0.00997
GUGCCUUGCGCCGGGAAACCACGCAAGGGAUGGUGUCAAAUUCGGCGAAACCUAAGCGCCCGCCCGGGCGUAUGGCAACGCAGAGCCAAGCUUCGGCGCCUGCGCCGAUGUAGGUGUAGCGACUAGACGGCACCCACCUAAGGCGAACGAUAUGGUGAAGGCAUAGUCCAGGGAGAGGCGAAAGUCACACAAACCGG [C82A A111U A120C A145G C150A U176A]	0.0105
GUGCCUUGCGCCGGGAAACCACGCAAGGGAUGGUGUCAAAUUCGGCGAAACCUAAGCGCCCGCCCGGGCGUAUGGCAACGCAGAGCCAAGCUUCGGCGCCUGCGCCGAUGUAGGUGUAGCGACUAGACGGCACCCACCUAAGGCGAACGAUAUGGUGAAGGCAUAGUCGAGGGAGGGGCGAAAGUCACACAAACCGG [C82A A111U A120C A145G C150A C169G U176G]	0.00858
GUGCCUUGCGCCGGGAAACCACGCAAGGGAUGGUGUCAAAUUCGGCGAAACCUAAGCGCCCGCCCGGGCGUAUGGCAACGCAGAGCCAAGCUUCGGCGCCUGCGCCGAUGUAGGUGUAGCGACUAGACGGCACCCACCUAAGGCGAACGAUAUGGUGAAGGCAUAGUCGAGGGAGAGGCGAAAGUCACACAAACCGG [C82A A111U A120C A145G C150A C169G U176A]	0.0204
GUGCCUUGCGCCGGGAAACCACGCAAGGGAUGGUGUCAAAUUCGGCGAAACCUAAGCGCCCGCCCGGGCGUAUGGCAACGCAGAGCCAAGCUUCGGCGCCUGCGCCGAUGUAGGUGUAGCGACUAGACGGCACCCACCUAAGGCGAACGAUAUGGUGAAGGCAUAGUCGAGGGAGCGGCGAAAGUCACACAAACCGG [C82A A111U A120C A145G C150A C169G U176C]	0.0343
GUGCCUUGCGCCGGGAAACCACGCAAGGGAUGGUGUCAAAUUCGGCGAAACCUAAGCGCCCGCCCGGGCGUAUGGCAACGCAGAGCCAAGCUUCGGCGCCUGCGCCGAUGUAGGUGUAGCGACUAGACGGCACCCACCUAAGGCGAACGGUAUGGUGAAGGCAUAGUCGAGGGAGUGGCGAAAGUCACACAAACCGG [C82A A111U A120C A145G C150G C169G]	0.00768
GUGCCUUGCGCCGGGAAACCACGCAAGGGAUGGUGUCAAAUUCGGCGAAACCUAAGCGCCCGCCCGGGCGUAUGGCAACGCAGAGCCAAGCUUCGGCGCCUGCGCCGAUGUAGGUGUAGCGACUAGACGGCACCCACCUAAGGCGAACGGUAUGGUGAAGGCAUAGUCUAGGGAGUGGCGAAAGUCACACAAACCGG [C82A A111U A120C A145G C150G C169U]	0.0104
GUGCCUUGCGCCGGGAAACCACGCAAGGGAUGGUGUCAAAUUCGGCGAAACCUAAGCGCCCGCCCGGGCGUAUGGCAACGCAGAGCCAAGCUUCGGCGCCUGCGCCGAUGUAGGUGUAGCGACUAGACGGCACCCACCUAAGGCGAACGGUAUGGUGAAGGCAUAGUCAAGGGAGUGGCGAAAGUCACACAAACCGG [C82A A111U A120C A145G C150G C169A]	0.00936
GUGCCUUGCGCCGGGAAACCACGCAAGGGAUGGUGUCAAAUUCGGCGAAACCUAAGCGCCCGCCCGGGCGUAUGGCAACGCAGAGCCAAGCUUCGGCGCCUGCGCCGAUGUAGGUGUAGCGACUAGACGGCACCCACCUAAGGCGAACGUUAUGGUGAAGGCAUAGUCCAGGGAGUGGCGAAAGUCACACAAACCGG [C82A A111U A120C A145G C150U]	0.0255
GUGCCUUGCGCCGGGAAACCACGCAAGGGAUGGUGUCAAAUUCGGCGAAACCUAAGCGCCCGCCCGGGCGUAUGGCAACGCAGAGCCAAGCUUCGGCGCCUGCGCCGAUGUAGGUGUAGCGACUAGACGGCACCCACCUAAGGCGAACGGUAUGGUGAAGGCAUAGUCCAGGGAGUGGCGAAAGUCACACAAACCGG [C82A A111U A120C A145G C150G]	0.0101
GUGCCUUGCGCCGGGAAACCACGCAAGGGAUGGUGUCAAAUUCGGCGAAACCUAAGCGCCCGCCCGGGCGUAUGGCAACGCAGAGCCAAGCUUCGGCGCCUGCGCCGAUGUAGGUGUAGCGACUAGACGGCACCCACCUAAGGCGAACGGUAUGGUGAAGGCAUAGUCGAGGGAGCGGCGAAAGUCACACAAACCGG [C82A A111U A120C A145G C150G C169G U176C]	0.0155
